Laboratory results reported in article PMC9608600, “Functional Characterization of Saccharomyces cerevisiae P5C Reductase, the Enzyme at the Converging Point of Proline and Arginine Metabolism” (Microorganisms, 2022).

T1: Saccharomyces cerevisiae P5C reductase (Pro3, ScP5CR) (Saccharomyces cerevisiae, UniProt P32263)
T1 construct: native full-length enzyme purified from commercial bakers' yeast; untagged; gene-deduced subunit 30,132 Da; native 320 kDa, homodecamer
T1 sequence (P32263 1-286): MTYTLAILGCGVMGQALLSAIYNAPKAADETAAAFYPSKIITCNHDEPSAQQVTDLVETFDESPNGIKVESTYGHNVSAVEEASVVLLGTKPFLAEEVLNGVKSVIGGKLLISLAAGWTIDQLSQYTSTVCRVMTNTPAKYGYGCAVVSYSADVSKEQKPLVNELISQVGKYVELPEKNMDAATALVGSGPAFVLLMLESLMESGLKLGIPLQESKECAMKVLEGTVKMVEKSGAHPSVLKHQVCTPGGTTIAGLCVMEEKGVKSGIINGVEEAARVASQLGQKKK

B1: Saccharomyces cerevisiae P5C reductase (Pro3, ScP5CR) (Saccharomyces cerevisiae S288C) (protein)
chain: T1 sequence (P32263 1-286)
notes: native full-length enzyme purified from commercial bakers' yeast; untagged; gene-deduced subunit 30,132 Da; native 320 kDa, homodecamer

Key:
[1] = biological target: T1, Saccharomyces cerevisiae P5C reductase (Pro3, ScP5CR); assay: NAD(P)H oxidation at […] nm, nonlinear regression; assay type: biochemical
[2] = substrate: NC(=O)C1=CN([C@@H]2O[C@H](COP(=O)(O)OP(=O)(O)OC[C@H]3O[C@@H](n4cnc5c(N)ncnc54)[C@H](OP(=O)(O)O)[C@@H]3O)[C@@H](O)[C@H]2O)C=CC1; assay: purified protein; assay type: biochemical, Saccharomyces cerevisiae; settings: 1 mM L-P5C, Tris-HCl pH 7.2, 30 °C, kcat per monomer
[3] = substrate: O=C(O)[C@@H]1CCC=N1; assay: purified protein; assay type: biochemical, Saccharomyces cerevisiae; settings: 0.5 mM NADH co-substrate, Tris-HCl pH 7.2, 30 °C, DL-P5C used, concentration as L-P5C
[4] = substrate: NC(=O)C1=CN([C@@H]2O[C@H](COP(=O)(O)OP(=O)(O)OC[C@H]3O[C@@H](n4cnc5c(N)ncnc54)[C@H](O)[C@@H]3O)[C@@H](O)[C@H]2O)C=CC1; assay: purified protein; assay type: biochemical, Saccharomyces cerevisiae; settings: 1 mM L-P5C, Tris-HCl pH 7.2, 30 °C, kcat per monomer

Molecule	Ki [1] [mM]	Km [2] [µM]	Vmax [2]	kcat [2]	kcat/Km [2] [M⁻¹ s⁻¹]	Km [3] [µM]	Km [4] [µM]	Vmax [4]	kcat [4] [s⁻¹]	kcat/Km [4] [M⁻¹ s⁻¹]
N=C(N)NCCC[C@H](N)C(=O)O [arginine]	19	–	–	–	–	–	–	–	–	–
B1	–	133.4 ± 7.3	294.2 ± 5.7 μkat (mg protein)^−1	10,515 s^−1	7.88e+07	64.3 ± 5.5	84.0 ± 7.1	107.9 ± 3.0 μkat (mg protein)^−1	3314	3.95e+07
